This is an account of results in publication PMC13022406, “Amino acid and viral binding by the high-affinity Cationic Amino acid Transporter 1 (CAT1) from Mus musculus” (Nature Communications, 2026).

The labels stand for the following.
B1: Friend Murine Leukemia Virus receptor binding domain (domain or fragment, UniProt P03390 35-270, looked up)
chain: AAPGSSPHQVYNITWEVTNGDRETVWAISGNHPLWTWWPVLTPDLCMLALSGPPHWGLEYQAPYSSPPGPPCCSGSSGSSAGCSRDCDEPLTSLTPRCNTAWNRLKLDQVTHKSSEGFYVCPGSHRPREAKSCGGPDSFYCASWGCETTGRVYWKPSSSWDYITVDNNLTTSQAVQVCKDNKWCNPLAIQFTNAGKQVTSWTTGHYWGLRLYVSGRDPGLTFGIRLRYQNLGPRVP
modifications: N-linked glycans at Asn46 and Asn202
notes: the previously crystallized construct (PDB 1AOL); Residues 43-265 were built in the cryo-EM model; also called FrMLV-RBD; source: adherent HEK293T cells (lentiviral expression), secreted, purified (Ni-NTA, SEC)
B2: Cationic Amino acid Transporter 1 (CAT1) from Mus musculus, purified (receptor)
chain: not shown
modifications: N-linked glycans at Asn223 and Asn229

In assay [1] the target is B2. The experiment in a line: cryo-EM structure; MmCAT1:FrMLV-RBD complex purified by SEC in LMNG/CHS; apo and with 34 mM arginine, 20 mM lysine or 20 mM ornithine. Particulars: both partners purified.
In assay [2] the target is B1. The experiment in a line: BLI; MmCAT1 (100 nM, twin-strep and GFP tag) loaded on Strep-Tactin XT probes (Gator Pivot); FrMLV-RBD at 2.7 uM, 900, 300, 100 and 33.3 nM; 25 mM HEPES pH 7.5, 125 mM NaCl, 0.003% LMNG, 0.0006% CHS; room temperature; 5 min association, 5 min dissociation. Particulars: both partners purified.

B1: in assay [1], the “stoichiometry N” value was 1.
Turning to B2, the Kd in assay [2] was 9.7 nM.
